US20190177434A1 (published 2019)

Experiments:
[1] = molecular target: T1, Human IgG, Fc fragment (human); test: method not given
T1 construct: domain: Fc; the ELISA plates were coated with 'antibody antigens', so whole IgG may have stood there; also called human IgG-Fc domain; IgG Fc domain species: human

[2] = molecular target: T2, Human IgG1 (human, UniProt P01857-1 1-330 = IgG part); test: SPR, IgG-Fc-16 immobilised, IgG 50 µg/ml
T2 construct: purified IgG of this subclass; also called HuIgG1
T2 sequence (P01857 other isoform, or with tags, fused parts or gaps): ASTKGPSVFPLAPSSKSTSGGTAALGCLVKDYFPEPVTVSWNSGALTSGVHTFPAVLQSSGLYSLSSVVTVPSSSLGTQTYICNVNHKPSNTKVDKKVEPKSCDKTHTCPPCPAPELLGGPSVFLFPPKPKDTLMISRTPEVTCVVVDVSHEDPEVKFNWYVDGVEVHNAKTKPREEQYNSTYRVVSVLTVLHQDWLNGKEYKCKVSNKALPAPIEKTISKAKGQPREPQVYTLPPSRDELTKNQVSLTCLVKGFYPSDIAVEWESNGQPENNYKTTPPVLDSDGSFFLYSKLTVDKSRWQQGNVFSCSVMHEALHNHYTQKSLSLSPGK
Description: (§1) Broad binding reactivity of VHH fragment IgG-Fc-16 was determined using surface plasmon resonance analysis (SPR) on a BiaCore 3000. For this purpose, purified VHH fragment IgG-Fc-16 was immobilised onto the surface of a CM5 sensor chip and subsequently incubated with purified IgG antibodies (50 μg/ml) from different species in HBS-EP buffer. Binding was allowed for 1 minute at 5 μl/min followed by a dissociation step of 2.5 minutes at 5 μl/min. Binding signals (Resonance Units) were compared to background signals measured with HBS-EP buffer only. For comparison, the relative reactivity of Protein A and G towards different IgG species is also given.

[3] = molecular target: T3, Human IgG2 (human, UniProt P01859-1 1-326 = IgG part); test: SPR, IgG-Fc-16 immobilised, IgG 50 µg/ml
T3 construct: purified IgG of this subclass; also called HuIgG2
T3 sequence (P01859 other isoform, or with tags, fused parts or gaps): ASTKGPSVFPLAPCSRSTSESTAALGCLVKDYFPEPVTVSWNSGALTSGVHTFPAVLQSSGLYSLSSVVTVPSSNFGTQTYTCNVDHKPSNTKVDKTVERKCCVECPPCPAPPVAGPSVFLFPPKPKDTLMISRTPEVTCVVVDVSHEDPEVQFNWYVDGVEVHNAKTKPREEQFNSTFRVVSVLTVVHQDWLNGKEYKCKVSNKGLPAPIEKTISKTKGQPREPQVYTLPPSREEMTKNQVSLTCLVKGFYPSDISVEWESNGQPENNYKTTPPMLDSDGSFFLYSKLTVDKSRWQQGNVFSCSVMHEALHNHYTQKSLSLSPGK
Description: as §1

[4] = molecular target: T4, Human IgG3 (human, UniProt P01860-1 1-377); test: SPR, IgG-Fc-16 immobilised, IgG 50 µg/ml
T4 construct: purified IgG of this subclass; also called HuIgG3
T4 sequence (P01860 other isoform, or with tags, fused parts or gaps): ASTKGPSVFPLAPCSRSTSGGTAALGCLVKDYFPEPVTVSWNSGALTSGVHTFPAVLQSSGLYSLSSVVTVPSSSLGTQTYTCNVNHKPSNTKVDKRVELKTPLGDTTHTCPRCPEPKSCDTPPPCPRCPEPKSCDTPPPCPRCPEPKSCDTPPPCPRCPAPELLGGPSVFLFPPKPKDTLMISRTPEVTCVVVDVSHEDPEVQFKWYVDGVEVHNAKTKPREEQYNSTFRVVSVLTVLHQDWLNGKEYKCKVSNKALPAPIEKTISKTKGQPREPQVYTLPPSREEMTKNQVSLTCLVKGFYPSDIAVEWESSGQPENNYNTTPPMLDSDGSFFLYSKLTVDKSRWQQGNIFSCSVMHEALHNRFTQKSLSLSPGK
Description: as §1

[5] = molecular target: T5, Human IgG4 (human, UniProt P01861-1 1-327 = IgG part); test: SPR, IgG-Fc-16 immobilised, IgG 50 µg/ml
T5 construct: purified IgG of this subclass; also called HuIgG4
T5 sequence (P01861 other isoform, or with tags, fused parts or gaps): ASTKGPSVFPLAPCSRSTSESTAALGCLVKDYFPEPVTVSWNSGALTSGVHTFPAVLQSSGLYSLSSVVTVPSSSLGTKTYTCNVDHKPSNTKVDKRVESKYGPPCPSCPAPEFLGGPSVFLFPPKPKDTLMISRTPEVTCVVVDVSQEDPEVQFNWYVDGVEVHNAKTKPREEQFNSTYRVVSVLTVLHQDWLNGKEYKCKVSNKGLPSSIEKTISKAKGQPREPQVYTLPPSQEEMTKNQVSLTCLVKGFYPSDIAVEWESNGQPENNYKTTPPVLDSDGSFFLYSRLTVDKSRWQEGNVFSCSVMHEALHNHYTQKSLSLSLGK
Description: as §1

[6] = molecular target: T6, Rat IgG1a (rat, UniProt P20759 1-326); test: SPR, IgG-Fc-16 immobilised, IgG 50 µg/ml
T6 construct: label 'IgG1a' as printed
T6 sequence (P20759 whole entry): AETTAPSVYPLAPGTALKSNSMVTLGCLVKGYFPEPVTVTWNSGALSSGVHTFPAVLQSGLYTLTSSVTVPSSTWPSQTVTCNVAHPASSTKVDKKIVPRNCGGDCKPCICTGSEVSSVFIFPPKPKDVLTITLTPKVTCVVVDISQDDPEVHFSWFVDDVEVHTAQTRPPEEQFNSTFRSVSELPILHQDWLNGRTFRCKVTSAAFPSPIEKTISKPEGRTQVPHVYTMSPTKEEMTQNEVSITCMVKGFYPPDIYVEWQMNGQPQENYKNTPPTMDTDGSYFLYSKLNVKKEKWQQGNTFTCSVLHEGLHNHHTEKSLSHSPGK
Description: as §1

[7] = molecular target: Rat IgG2a (rat, UniProt P20760 1-322); test: SPR, IgG-Fc-16 immobilised, IgG 50 µg/ml
Chain of Rat IgG2a (P20760 whole entry): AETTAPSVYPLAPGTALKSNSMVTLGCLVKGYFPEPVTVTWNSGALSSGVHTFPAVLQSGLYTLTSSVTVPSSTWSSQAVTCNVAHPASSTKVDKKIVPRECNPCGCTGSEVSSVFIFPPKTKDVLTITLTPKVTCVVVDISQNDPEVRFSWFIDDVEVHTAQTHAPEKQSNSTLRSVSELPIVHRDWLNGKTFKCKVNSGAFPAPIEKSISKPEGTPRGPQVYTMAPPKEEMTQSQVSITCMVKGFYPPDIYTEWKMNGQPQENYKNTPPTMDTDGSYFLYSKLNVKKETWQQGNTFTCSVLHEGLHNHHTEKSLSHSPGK
Description: as §1

[8] = molecular target: Rat IgG2b (rat, UniProt P20761 1-333); test: SPR, IgG-Fc-16 immobilised, IgG 50 µg/ml
Chain of Rat IgG2b (P20761 whole entry): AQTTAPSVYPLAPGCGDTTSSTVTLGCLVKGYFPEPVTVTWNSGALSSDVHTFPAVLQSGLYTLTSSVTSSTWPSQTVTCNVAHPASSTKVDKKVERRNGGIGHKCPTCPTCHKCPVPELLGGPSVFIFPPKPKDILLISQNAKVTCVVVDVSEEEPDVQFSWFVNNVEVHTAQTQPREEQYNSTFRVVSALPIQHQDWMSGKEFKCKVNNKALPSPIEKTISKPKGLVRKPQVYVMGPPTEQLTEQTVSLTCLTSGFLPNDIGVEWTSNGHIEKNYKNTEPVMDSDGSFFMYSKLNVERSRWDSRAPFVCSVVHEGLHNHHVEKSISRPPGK
Description: as §1

[9] = molecular target: Rat IgG2c (rat, UniProt P20762 1-329); test: SPR, IgG-Fc-16 immobilised, IgG 50 µg/ml
Chain of Rat IgG2c (P20762 whole entry): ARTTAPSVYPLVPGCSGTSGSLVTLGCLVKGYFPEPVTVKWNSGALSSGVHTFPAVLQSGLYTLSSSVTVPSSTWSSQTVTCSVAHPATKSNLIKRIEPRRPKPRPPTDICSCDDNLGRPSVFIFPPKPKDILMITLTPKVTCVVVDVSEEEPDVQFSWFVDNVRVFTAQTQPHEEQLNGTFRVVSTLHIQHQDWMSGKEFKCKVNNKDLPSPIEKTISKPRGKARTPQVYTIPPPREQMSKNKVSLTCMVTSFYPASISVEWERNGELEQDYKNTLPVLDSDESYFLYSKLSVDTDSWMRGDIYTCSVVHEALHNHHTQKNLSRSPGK
Description: as §1

[10] = molecular target: Mouse IgG 1 (mouse, UniProt P01868 1-324 = IgG part); test: SPR, IgG-Fc-16 immobilised, IgG 50 µg/ml
Description: as §1

[11] = molecular target: Mouse IgG2a (mouse, UniProt P01863 1-330 = IgG part); test: SPR, IgG-Fc-16 immobilised, IgG 50 µg/ml
Chain of Mouse IgG2a (P01863 whole entry): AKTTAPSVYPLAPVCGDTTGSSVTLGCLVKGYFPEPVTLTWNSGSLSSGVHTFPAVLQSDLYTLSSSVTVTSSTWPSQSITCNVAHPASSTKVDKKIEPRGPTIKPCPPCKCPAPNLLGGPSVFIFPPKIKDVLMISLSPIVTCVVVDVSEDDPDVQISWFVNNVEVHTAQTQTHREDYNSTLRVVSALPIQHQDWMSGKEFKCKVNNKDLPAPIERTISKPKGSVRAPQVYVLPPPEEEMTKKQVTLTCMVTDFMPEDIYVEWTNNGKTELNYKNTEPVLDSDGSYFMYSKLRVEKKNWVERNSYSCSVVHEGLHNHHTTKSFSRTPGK
Description: as §1

[12] = molecular target: T7, Guinea IgG (guinea pig); test: SPR, IgG-Fc-16 immobilised, IgG 50 µg/ml
T7 construct: printed 'Guinea IgG'; also called guinea pig IgG
Description: as §1

[13] = molecular target: Chicken IgG (chicken); test: SPR, IgG-Fc-16 immobilised, IgG 50 µg/ml
Description: as §1

[14] = molecular target: T2, Human IgG1; test: SPR, VHH immobilised, IgG as analyte, 1:1 Langmuir
Description: (§2) Binding affinity constants of anti IgG-Fc VHH fragments were determined using surface plasmon resonance analysis (SPR) on a BiaCore 3000. For this purpose, purified VHH fragments were immobilised onto the surface of a CM5 sensor chip and subsequently incubated with different concentrations of purified IgG antibodies in HBS-EP buffer. Binding was allowed for 3 minutes at 30 μl/min followed by a dissociation step of 15 minutes at 30 μl/min. Binding curves were fitted according to a 1:1 Langmuir binding model using Biacore software.

[15] = molecular target: T3, Human IgG2; test: SPR, VHH immobilised, IgG as analyte, 1:1 Langmuir
Description: as §2

[16] = molecular target: T4, Human IgG3; test: SPR, VHH immobilised, IgG as analyte, 1:1 Langmuir
Description: as §2

[17] = molecular target: T5, Human IgG4; test: SPR, VHH immobilised, IgG as analyte, 1:1 Langmuir
Description: as §2

B1: IgG-Fc-10 (VHH)
VHH: QVQLQESGGGLVQAGDSLRISCRASGLTVNDLYMGWFRQAPGKEREFVGRVTPGDNTDYTYYVDSVKGRFTISRDSAKNTVYLQMNSLKLEDTAVYLCAGRRFGSSEWDYWGQGTQVTVSS
With B1 the Ka [1] was no less than 4e+09 M⁻¹.

B2: IgG-Fc-16 (VHH)
VHH: QVQLQESGGGLVQAGGSLRLSCAASGRAVGNYIIGWFRQAPGKEREFVATTTRDGGSTFYADSVKGRFTISRDNAKNTVNLQMNSLEPEDTAVYYCAAKSWSVPLRPTSADFDSWGQGTQVTVSS
For B2, the “Binding signal (RU)” value [2] was 1570 RU, the “Binding signal (RU)” value [3] was 795 RU and the “Binding signal (RU)” value [4] was 499 RU. For the same binder, the “Binding signal (RU)” value [5] was 710 RU, the “Binding signal (RU)” value [6] was 431 RU and the “Binding signal (RU)” value [7] was 444 RU. For the same binder, the “Binding signal (RU)” value [8] was 512 RU, the “Binding signal (RU)” value [9] was 2130 RU and the “Binding signal (RU)” value [10] was 1610 RU. The “Binding signal (RU)” value [11] was 427 RU, the “Binding signal (RU)” value [12] was 577 RU and the “Binding signal (RU)” value [13] was -3.1 RU. For the same binder, the Ka [14] was 1.47e+08 M⁻¹, the Kd [14] was 6.81 nM and the koff [14] was 0.000211 s⁻¹. For the same binder, the kon [14] was 31000 M⁻¹ s⁻¹, the Ka [15] was 6.17e+07 M⁻¹ and the Kd [15] was 16.2 nM. For the same binder, the koff [15] was 0.000355 s⁻¹, the kon [15] was 21900 M⁻¹ s⁻¹ and the Ka [16] was 4.69e+07 M⁻¹. For the same binder, the Kd [16] was 21.3 nM, the koff [16] was 0.000849 s⁻¹ and the kon [16] was 39800 M⁻¹ s⁻¹. For the same binder, the Ka [17] was 5.89e+08 M⁻¹, the Kd [17] was 1.7 nM and the koff [17] was 0.000107 s⁻¹. The kon [17] was 62900 M⁻¹ s⁻¹.

B3: IgG-Fc-01 (VHH)
VHH: QVQLQESGGGLVQPGGSLRLSCAASGGTSIRIGSINALAWYRQALGNQRELVAAVTEGGSTNYADFVKGRFTISRDNAQNMMYLQMNSLKPEDTAVYYCNADKVLYSRGGYYSVANDLWGQGTQVTVSS
notes: also called IgG-Fc-1
For B3, the Ka [14] was 1.74e+09 M⁻¹, the Kd [14] was 0.575 nM and the koff [14] was 0.000208 s⁻¹. The kon [14] was 361000 M⁻¹ s⁻¹, the Ka [15] was 5.76e+08 M⁻¹ and the Kd [15] was 1.73 nM. For the same binder, the koff [15] was 0.000212 s⁻¹, the kon [15] was 122000 M⁻¹ s⁻¹ and the Ka [16] was 2.09e+07 M⁻¹. For the same binder, the Kd [16] was 47.8 nM, the koff [16] was 0.000272 s⁻¹ and the kon [16] was 5690 M⁻¹ s⁻¹. The Ka [17] was 3.32e+09 M⁻¹, the Kd [17] was 0.302 nM and the koff [17] was 5.91e-05 s⁻¹. For the same binder, the kon [17] was 196000 M⁻¹ s⁻¹.
